Reference: patent US20240010748A1 (SHANGHAI QILU PHARMACEUTICAL RESEARCH AND DEVELOPMENT CENTRE, published 2024)
Positions count from the first letter of the chain named. Numbers in names are those of the source.

T1: human Claudin 18.2 (hCLDN18.2) on stably-transfected HEK293 cells (human, UniProt P56856-2 1-261)
T1 sequence (looked up): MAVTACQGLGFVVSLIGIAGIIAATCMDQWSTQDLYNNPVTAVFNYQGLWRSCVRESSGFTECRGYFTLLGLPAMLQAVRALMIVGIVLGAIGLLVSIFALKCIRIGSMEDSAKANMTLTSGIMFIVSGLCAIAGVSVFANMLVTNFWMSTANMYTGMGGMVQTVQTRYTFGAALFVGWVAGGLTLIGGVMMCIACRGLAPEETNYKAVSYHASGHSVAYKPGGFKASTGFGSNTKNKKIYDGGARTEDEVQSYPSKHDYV

T2: Cynomolgus macaques Claudin 18 (cynoCLDN18) on stably-transfected HEK293 cells (Cynomolgus macaques, UniProt A0A2K5VVB4 1-261)
T2 chain: T1 sequence (looked up) with I240T, R246H, V251L

B1: 6#AA (antibody, human IgG1, kappa, L234A L235A, V domains shown)
VH: QVQLVQSGAEVKKPGASVKVSCKASGYIFTNYWIHWVRQAPGQGLEWMGRIYPGTGNTYYNEKFTGRVTMTRDTSTSTVYMELSSLRSEDTAVYYCAREGYGKGNSMDYWGQGTTVTVSS
VL: DIVMTQSPDSLAVSLGERVTMNCKSSQSLLNAGNQKNYLTWYQQKPGQPPKLLFYWASTRESGVPDRFSGSGSGTDFTLTISSVQAEDVAVYHCQNAYYYPYTFGGGTKLEIKR
notes: Anti-human CLDN18.2 full-length antibody, IgG1 Fc with L234A/L235A
B2: h160C9AA (antibody, human IgG1, lambda, L234A L235A, V domains shown)
VH: EVKLVESGGGLVQPGGSLKLSCAASGFTFNTYAMNWVRQAPGKGLEWVARIRSKYNNYATYYADSVKDRFTISRDDAKNTLYLQMNNLRTEDTAVYYCVRHGNFGNSYVSWFAYWGQGTLVTVSS
VL: QAVVTQEPSLTVSPGGTVTLTCRSSTGAVTTSNYANWVQQKPGQAPRGLIGGTNKRAPGTPARFSGSLLGGKAALTLSGAQPEDEAEYYCALWYSNLWVFGGGTKLTVLG
notes: Anti-CD3 full-length antibody, Fc with L234A/L235A
B3: 31905-44AA (bispecific antibody, human IgG1, kappa, L234A L235A)
heavy 1: not shown
heavy 2: QVQLVQSGAEVKKPGASVKVSCKASGYIFTNYWIHWVRQAPGQGLEWMGRIYPGTGNTYYNEKFTGRVTMTRDTSTSTVYMELSSLRSEDTAVYYCAREGYGKGNSMDYWGQGTTVTVSSASTKGPSVFPLAPSSKSTSGGTAALGCLVKDYFPEPVTVSWNSGALTSGVHTFPAVLQSSGLYSLSSVVTVPSSSLGTQTYICNVNHKPSNTKVDKKVEPKSCDKTHTCPPCPAPEAAGGPSVFLFPPKPKDTLMISRTPEVTCVVVDVSHEDPEVKFNWYVDGVEVHNAKTKPREEQYNSTYRVVSVLTVLHQDWLNGKEYKCKVSNKALPAPIEKTISKAKGQPREPQVCTLPPSRDELTKNQVSLSCAVKGFYPSDIAVEWESNGQPENNYKTTPPVLDSDGSFFLVSKLTVDKSRWQQGNVFSCSVMHEALHNRYTQKSLSLSPGK
light: not shown
notes: Full-length 6#AA with one anti-CD3 scFv of h160C9AA on the C-terminus of one heavy chain; knob-into-hole; Fc with L234A/L235A; also called anti-CD3-CLDN18.2 bispecific antibody; CD3 monovalent antibody

Columns and labels:
[1] = biological target: T1, human Claudin 18.2 (hCLDN18.2) on …; assay: cell-based or functional assay
[2] = biological target: T3, human CD3 (hCD3) naturally expressed on Jurkat cells (human, UniProt P07766 23-207); assay: cell-based or functional assay
T3 sequence (P07766 23-207): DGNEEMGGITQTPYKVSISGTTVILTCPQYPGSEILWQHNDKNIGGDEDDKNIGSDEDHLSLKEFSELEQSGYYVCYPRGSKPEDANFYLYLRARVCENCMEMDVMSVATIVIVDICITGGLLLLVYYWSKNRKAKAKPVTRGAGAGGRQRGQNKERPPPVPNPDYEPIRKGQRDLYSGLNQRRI

[3] = biological target: T3, human CD3 (hCD3) naturally expressed on …; assay: FACS on Jurkat cells
Procedure: (§1) The binding situation of the anti-CD3-CLDN18.2 bispecific antibodies to stably-transfected HEK293 cells expressing hCLDN18.2 (HEK293-hCLDN18.2) and T lymphocytes naturally expressing hCD3 (Jurkat) were detected by using FACS.
(§2) HEK293-hCLDN18.2 or Jurkat cells were collected and re-suspended with FACS buffer (PBS+1% BSA+0.5 mM EDTA), after adjusting the cell concentration, 1E5 cells per well were added into a 96-well plate, and then the antibody after gradient dilution was added according to the preset concentration, wherein the negative control was human IgG1AA (Negative-IgG1AA), the positive control of CLDN18.2 was antibody 6#AA, and the positive control of CD3 was antibody h160C9AA. Following incubation in a 4° C. shaking table for 2 h, the mixture was centrifugally washed twice with FACS buffer, added with fluorescently labeled anti-human IgG secondary antibody, 100 μL per well; after incubation in a 4° C. shaking table for 1 h, the mixture was centrifugally washed twice with FACS buffer, the cells were filtered to a 96-well plate, and then the prepared sample was detected on a flow cytometer; the mean fluorescence intensity (hereinafter referred to as MFI) for each concentration was calculated by software, and then the median effective concentration (hereinafter referred to as EC₅₀) and the top mean fluorescence intensity (Top MFI) were calculated by GraphPad software, and the results were shown in Table 3.

[4] = biological target: T2, Cynomolgus macaques Claudin 18 …; assay: FACS on HEK293-cynoCLDN18 cells
[5] = biological target: T1, human Claudin 18.2 (hCLDN18.2) on …; assay: cell-based or functional assay; remark: listed apart in the source
[6] = biological target: T3, human CD3 (hCD3) naturally expressed on …; assay: FACS on Jurkat cells (natural hCD3), fluorescent anti-human IgG secondary antibody
Procedure: as §1
HEK293-hCLDN18.2 or Jurkat cells were collected and re-suspended with FACS buffer (PBS+1% BSA+0.5 mM EDTA), after adjusting the cell concentration, 1E5 cells per well were added into a 96-well plate, and then the antibody after gradient dilution was added according to the preset concentration, wherein the negative control was human IgG1AA (Negative-IgG1AA), the positive control of CLDN18.2 was antibody 6#AA, and the positive control of CD3 was antibody h160C9AA. […]

[7] = biological target: T1, human Claudin 18.2 (hCLDN18.2) on …; assay: FACS on HEK293-hCLDN18.2 cells
Procedure: as §1, §2

human CD3 E&D protein = biological target: T4, human CD3 E&D protein (human, UniProt P07766 23-126; P04234 22-105); assay: SPR (Biacore 8K), CD3 E&D immobilised by amino coupling, antibody as analyte, 1:1 fit
T4 construct: Soluble CD3 epsilon and delta protein immobilised on the chip; also called Humanized CD3 E&D; humanized CD3 E&D protein
T4 sequence (P07766 23-126, chain 1 of 2): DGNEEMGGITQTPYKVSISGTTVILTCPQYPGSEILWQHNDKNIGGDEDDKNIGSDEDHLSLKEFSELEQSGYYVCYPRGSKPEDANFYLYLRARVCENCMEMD
T4 sequence (P04234 22-105, chain 2 of 2): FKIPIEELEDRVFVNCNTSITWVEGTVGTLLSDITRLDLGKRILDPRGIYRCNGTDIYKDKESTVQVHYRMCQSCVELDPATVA
Procedure: The affinity and kinetic properties of the bispecific antibodies to human CD3 E&D proteins were determined by surface plasmon resonance (SPR) using a Biacore 8K instrument. The human CD3 E&D protein was immobilized on the experimental channel of CMS chip by amino coupling, then the antibody to be tested was subjected to doubling dilution to serial concentrations, flowed through the surfaces of an experimental channel and a reference channel successively for binding, followed by dissociation, the binding and dissociation curve of each sample was obtained, and the results were analyzed and evaluated by Biacore Insight Evaluation software.
The bispecific antibodies of the present disclosure were diluted to 400 nM with 1×HBS-EP+ (10 mM HEPES, pH 7.4, 150 mM NaCl, 3 mM EDTA, 0.05% P20) running buffer, then subjected to doubling dilution to 1.56 nM with this buffer, thus obtaining antibody solutions in a range of concentrations from 400 nM to 1.56 nM. At the end of each experiment, the chip was regenerated by washing with 3M MgCl₂ solution at a flow rate of 30 μL/min for 30 s to remove captured antibody together with antigen. The raw data were analyzed using Biacore Insight Evaluation Software (version 2.0.15.12933) with a 1:1 fit model and affinity and kinetic experimental data of the resulting bispecific antibodies were shown in Table 4.

| Binder | ADCC activity, EC50 [1] [nM] | ADCC activity, Maximum lysis (%) [1] [%] | Jurkat-NFAT luciferase reporter, Fluorescence value (Max) [2] | Top mean fluorescence intensity (Top MFI) [3] [MFI] | EC50 [4] [nM] | MFI (Max) [4] [MFI] | T cell activation, CD25+CD69+ % [5] [%] | TDCC activity, EC50 [5] [nM] | TDCC activity, Maximum lysis (%) [5] [%] | binding result [6] | EC50 [7] [nM] | Top mean fluorescence intensity (Top MFI) [7] [MFI] | Jurkat-NFAT luciferase reporter, EC50 [2] [nM] | EC50 [3] [nM] | T cell activation, EC50 [5] [nM] | Kd (human CD3 E&D protein) [nM] | koff (human CD3 E&D protein) [s⁻¹] | kon (human CD3 E&D protein) [M⁻¹ s⁻¹] |
| --- | --- | --- | --- | --- | --- | --- | --- | --- | --- | --- | --- | --- | --- | --- | --- | --- | --- | --- |
| B1 | 0.771 | 6.92 | 0 | 26 | 0.62 | 39500 | 3.18 | 1.45 | 16.3 | no binding (tested: about 2e-7 M (log M about -6.7)) | 0.95 | 18600 |  |  |  |  |  |  |
| B2 |  |  | 220000 | 2020 |  | 1040 |  |  |  |  |  | 897 | 0.32 | 0.13 |  |  |  |  |
| B3 | 0.532 | 7.03 | 114000 | 1700 | 0.84 | 41800 | 33.4 | 0.54 | 30 |  | 1.18 | 31000 | 124 | 9.3 | 0.049 | 17.9 | 0.00365 | 204000 |
